The results in this text go back to patent US20120064078A1.

The experiment concerns the target intracellular Hsp90α (human) (human) (UniProt P07900). Briefly: cell-based or functional assay.

In the case of “human PP5 in MCF-7 cells (overexpressed from pcDNA3.1/Myc-His(-) or endogenous, knocked down by siRNA) (from UniProt P53041 2-499)”, the Thr90 phosphorylated Hsp90α (pT90-Hsp90α) level in MCF-7 cells on overexpression of human PP5 (fold of control) stood at 0.55 and the Thr90 phosphorylated Hsp90α (pT90-Hsp90α) level in MCF-7 cells on siRNA knock-down of human PP5 (fold of control) turned out to be 1.58.
